# Results as given in article PMC10042835, “Phytochrome B photobodies are comprised of phytochrome B and its primary and secondary interacting proteins” (Nature Communications, 2023).
# T1: SBP-fused phyB (SBP-phyB), recombinant full-length phyB (Arabidopsis thaliana, UniProt P14713 1-1172, made in phycocyanobilin-producing LMG194 (chromophore); Pfr or Pr form set by a red or far-red light pulse)
# T1 construct: phytochrome B (phyB), Arabidopsis thaliana, full length; pBAD-derived vector; the Pfr and Pr forms are told apart by the assay; also called phytochrome B; Pfr form; source: phycocyanobilin-producing E. coli LMG194, purified (Ni-NTA, Streptavidin sepharose)
# T1 sequence (looked up): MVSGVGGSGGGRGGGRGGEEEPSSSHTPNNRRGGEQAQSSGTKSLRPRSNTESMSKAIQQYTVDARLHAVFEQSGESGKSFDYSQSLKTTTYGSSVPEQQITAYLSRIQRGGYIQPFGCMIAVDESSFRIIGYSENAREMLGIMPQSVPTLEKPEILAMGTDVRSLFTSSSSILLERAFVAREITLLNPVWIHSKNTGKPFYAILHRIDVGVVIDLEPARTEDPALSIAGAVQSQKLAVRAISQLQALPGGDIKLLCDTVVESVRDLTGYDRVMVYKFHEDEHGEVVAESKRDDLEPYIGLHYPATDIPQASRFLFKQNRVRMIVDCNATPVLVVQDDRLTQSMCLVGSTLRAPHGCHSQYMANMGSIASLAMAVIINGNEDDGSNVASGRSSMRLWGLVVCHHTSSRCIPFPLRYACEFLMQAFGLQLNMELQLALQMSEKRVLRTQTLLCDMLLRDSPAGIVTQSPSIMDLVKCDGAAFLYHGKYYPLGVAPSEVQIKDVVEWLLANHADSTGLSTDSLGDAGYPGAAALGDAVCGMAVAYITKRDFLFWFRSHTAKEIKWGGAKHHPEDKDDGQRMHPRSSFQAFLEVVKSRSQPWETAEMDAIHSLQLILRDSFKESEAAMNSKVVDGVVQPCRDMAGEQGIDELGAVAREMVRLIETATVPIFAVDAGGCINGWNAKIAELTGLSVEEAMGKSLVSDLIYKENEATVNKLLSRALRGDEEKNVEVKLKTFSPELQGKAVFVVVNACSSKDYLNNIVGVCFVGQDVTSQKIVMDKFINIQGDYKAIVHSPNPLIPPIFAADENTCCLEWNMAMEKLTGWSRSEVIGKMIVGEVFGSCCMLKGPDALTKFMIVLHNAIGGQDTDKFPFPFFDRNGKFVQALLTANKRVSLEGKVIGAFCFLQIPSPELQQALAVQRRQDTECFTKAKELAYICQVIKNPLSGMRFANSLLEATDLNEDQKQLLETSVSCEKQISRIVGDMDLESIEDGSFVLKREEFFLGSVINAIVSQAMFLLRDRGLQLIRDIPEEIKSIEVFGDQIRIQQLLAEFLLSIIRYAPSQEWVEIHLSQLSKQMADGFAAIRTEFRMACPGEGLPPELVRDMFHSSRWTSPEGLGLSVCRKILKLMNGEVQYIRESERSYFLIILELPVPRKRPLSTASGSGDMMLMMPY
# Molecular target: T1, SBP-fused phyB (SBP-phyB), recombinant …
# Test: pull-down; GST fusions incubated with SBP-phyB in the Pfr form (red light pulse 25 μmol/m2/s, 10 min, before the incubation), glutathione resin; 25 mM HEPES, 150 mM KCl, 1 mM DTT, pH 7.40; green safety light
# Details: both partners purified
binder,measurement,value
"GST-fused PIF4 (GST-PIF4) (natural protein, Arabidopsis thaliana, UniProt Q8W2F3 1-430, looked up, source: E. coli BL21(DE3)-CodonPlus-RIL, purified (Ni-NTA, glutathione agarose); not shown: GST, N-terminal, kept) MEHQGWSFEENYSLSTNRRSIRPQDELVELLWRDGQVVLQSQTHREQTQTQKQDHHEEALRSSTFLEDQETVSWIQYPPDEDPFEPDDFSSHFFSTMDPLQRPTSETVKPKSSPEPPQVMVKPKACPDPPPQVMPPPKFRLTNSSSGIRETEMEQYSVTTVGPSHCGSNPSQNDLDVSMSHDRSKNIEEKLNPNASSSSGGSSGCSFGKDIKEMASGRCITTDRKRKRINHTDESVSLSDAIGNKSNQRSGSNRRSRAAEVHNLSERRRRDRINERMKALQELIPHCSKTDKASILDEAIDYLKSLQLQLQVMWMGSGMAAAAASAPMMFPGVQPQQFIRQIQSPVQLPRFPVMDQSAIQNNPGLVCQNPVQNQIISDRFARYIGGFPHMQAATQMQPMEMLRFSSPAGQQSQQPSSVPTKTTDGSRLDH",binding result,binds
